Laboratory results published in US20220396632A1 (VERSEAU THERAPEUTICS, published 2022).
Residue numbers refer to the chain shown, from its start.

T1: Recombinant human PSGL-1(ECD)-hFc1 (R&D Systems, Cat. 3345-PS) (human, UniProt Q14242 42-305)
T1 construct: Bought; Gln42-Val295 counted on AAC50061; also called PSGL-1-Fc; PSGL-1-hFc1 chimera; not shown: human IgG1 Fc, Pro100-Lys330
T1 sequence: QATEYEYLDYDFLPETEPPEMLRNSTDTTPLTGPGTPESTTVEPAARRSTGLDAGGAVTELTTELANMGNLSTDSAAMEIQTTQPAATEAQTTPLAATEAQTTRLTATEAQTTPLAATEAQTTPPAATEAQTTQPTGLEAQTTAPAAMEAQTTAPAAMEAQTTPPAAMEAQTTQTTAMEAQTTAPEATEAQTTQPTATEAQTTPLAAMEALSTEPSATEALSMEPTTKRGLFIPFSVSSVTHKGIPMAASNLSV

T2: Biotin Y46,48,51(SO3) PSGL-1(42-62) peptide (human, sulfotyrosine at Y46, Y48 and Y51; C-terminal Lys-biotin)
T2 construct: also called fully sulfated N-terminal PSGL-1 peptide
T2 peptide: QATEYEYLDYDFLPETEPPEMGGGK

T3: Biotin PSGL-1(42-62) peptide, unmodified (human, C-terminal Lys-biotin)
T3 construct: Residues 42-62 followed by GGGK-biotin; also called WT; wild-type
T3 peptide: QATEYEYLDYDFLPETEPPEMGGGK

T4: Scrambled Y42,52,63(SO3) PSGL-1(42-62) biotin peptide (sulfotyrosine at peptide positions 1, 11 and 22; C-terminal Lys-biotin)
T4 peptide: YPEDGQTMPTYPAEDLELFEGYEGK

T5: Scrambled Y46,48,51(SO3) PSGL-1(42-62) biotin peptide (sulfotyrosine at peptide positions 5, 7 and 10; C-terminal Lys-biotin)
T5 construct: also called scrambled sulfated peptide: biotin
T5 peptide: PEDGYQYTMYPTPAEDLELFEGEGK

T6: Cynomolgus PSGL-1(ECD)-HIS (cynomolgus macaque)
T6 construct: also called Cyno PSGL1-His
T6 chain: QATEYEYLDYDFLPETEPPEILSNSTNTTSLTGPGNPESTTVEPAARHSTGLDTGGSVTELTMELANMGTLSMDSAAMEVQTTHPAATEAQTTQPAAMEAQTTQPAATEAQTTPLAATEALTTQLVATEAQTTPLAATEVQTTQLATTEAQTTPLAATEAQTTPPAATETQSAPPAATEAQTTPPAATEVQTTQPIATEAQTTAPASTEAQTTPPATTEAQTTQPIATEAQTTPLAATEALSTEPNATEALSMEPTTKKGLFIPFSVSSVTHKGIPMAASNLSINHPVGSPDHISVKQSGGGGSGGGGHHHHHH

T7: Biotin sY51 PSGL-1(42-62) peptide (human, sulfotyrosine at Y51; C-terminal Lys-biotin)
T7 construct: also called Y51(SO3) PSGL-1(42-62)
T7 peptide: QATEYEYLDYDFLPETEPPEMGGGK

B1: 10F01 (antibody, IgG4, V domains shown)
VH: EVQLVQSGGGLVQPGGSLRLSCAASGFTFSSYAMSWVRQAPGKGLEWVSALRGGDGGTYHADSVKGRFTISGDSSKNTLYLQMNSLRAEDTAVYYCARRMVGAAYAFDIWGQGTMVTVSS
VL: LPVLTQPHSVSESPGKTVTISCTRSSGSIADNFVQWYRQRPGSAPTTVIYEGDQRPSGVPGRFSGSIDSSSNSASLTISGLQTDDEADYYCQSFDSYNRRTHVVFGGGTKLTVL
B2: 9F9 (antibody, V domains shown)
VH: EVQLVETGGGLVQPKGSLKLSCAASGFTFNTNAMNWVRQAPGKGLEWVARIRSKSNNYATYYADSVKDRFTISRDDTQSMIYLQMNNLKTEDTGMYYCVRGGSYWYFDVWGAGTTVTVSS
VL: DVLMTQTPLSLPVSLGDQASISCRSSQSIVNSNGNTYLEWYLQKPGQSPKLLIYKVSNRFSGVPDRFSGSGSGTDFTLKISRVEAEDLGVYYCFQGSHVPWTFGGGTKLEIK
notes: Control anti-PSGL-1 mAb, recombinant; only variable domains given; also called 9F6
B3: 05D01 (antibody, V domains shown)
VH: QVTLRESGGALVQPGGSLRLSCAASGFPLRSNAMTWVRQAPGKGLEWVSDIRGNGASTYYADSVKGRFTISRDDSNNILFLQMNSLRAEDTAVYYCVGHGSSSYWGQGTLVTVSS
VL: DVVMTQSPLSLPVTLGQPASISCRSSQSLVYRDGNIYLNWFQQRPGQSPRRLIYKVSNRDSGVPDRFSGSGSGTDFTLKISRVEAEDVGVYYCMQLTHWPPGFAQGTKLEIK
B4: 43B6 (antibody, V domains shown)
VH: EVQLQQSGPDLVKPGALVKISCKASGYSFTAYYIHWVKQSHGKSLEWIGRVNPNTGGTSYNPKFKGKAILNVDKSSSTAYMELRSLTSEDSAVYYCARSGSPYYRYDDWGQGTTLTVSS
VL: ENVLTQSPAIMSASPGEKVTMTCRASSTVNSTYLHWFQQKSGASPKLWIYGSSNLASGVPARFSGSGSGTSYSLTISSVEAEDAATYYCQQYSGYPLTFGAGTTLELK
notes: Control anti-PSGL-1 mAb, recombinant; only variable domains given; also called 43B3
B5: 18K07 (antibody, V domains shown)
VH: QIQLVQSGPELKKPGETVKISCEASGYTFTTYGMNWVKQAPGKGLKWMGWINTYSGVPTYADDFQGRFAFSVETSATTAYLQINNLKNEDAATYFCARSDDTYYGFAYWGQGTLVTVSA
VL: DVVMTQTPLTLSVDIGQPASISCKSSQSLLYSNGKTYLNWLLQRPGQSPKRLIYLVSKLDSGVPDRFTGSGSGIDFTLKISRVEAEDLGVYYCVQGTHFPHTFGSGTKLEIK
notes: From mouse immunisation; only variable domains given
B6: 20I15 (antibody, V domains shown)
VH: EVKLVESGGGLVQPGGSLSLSCAASGFTFTDYYMSWVRQPPGKALEWLGFIRNKANGYTTEYSASVKGRFTISRDNSQSILYLQMNALRAEDSATYYCARTYLRRGYFDVWGTGTTVTVSS
VL: DIVLTQSPASLAVSLGQRATISCRASKSVSTSGYSYMHWFQQKPGQPPKLLIYLASNLESGVPARFSGSGSGTDFTLNIHPVEEEDAATYYCQHSRELPLTFGAGTKLELK
notes: From mouse immunisation; only variable domains given; also called 20115
B7: 03D07 (antibody, IgG4, V domains shown)
VH: EVKLLESGGGLVQPGGSLRLSCAASGFTFSSYALSWVRQAPGKGLEWVSAISGSGGNTYYADSVKGRFTISRDNSKNTLYLQMNSLRAEDTAVYYCAKVVGATNYWGQGTLVTVSS
VL: DIVMTQTPLSLPVTLGQPASISCRSSQSLVYSDGHTYLSWFHQRPGQSPRRLIYKVSIRDSGVPDRFSGSGSGTDFTLKISRVEAEDVGVYYCMQRLQIPLTFGGGTKVEIK
B8: 16E17 (antibody, V domains shown)
VH: QIQLVQSGPELKKPGETVKISCKASGYAFTTYGMSWVKQAPGKGLKWMGWINTYSGVPKYADDFKGRFAFSLETSASTAYLHINNLKNEDTATYFCGRHYYGSSYFDYWGQGTTLTVSS
VL: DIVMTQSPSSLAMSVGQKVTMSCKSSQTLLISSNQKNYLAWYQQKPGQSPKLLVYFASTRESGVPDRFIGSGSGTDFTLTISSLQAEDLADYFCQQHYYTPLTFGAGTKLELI
notes: as for B5
B9: 19N05 (antibody, V domains shown)
VH: B8 VH with A28T, K59T, Y60F, H82Q, Y94F, G97A, H99N, S103N, S104H
VL: DVQITQSPSYLAASPGETISINCRASNNINKYLAWYQEKPGKTNKLLIYSGSTLQSGIPSRFSGSGSGTDFTLTISSLEPEDFAMYHCQQHNYYPLTFGAGTKLELK
notes: as for B5
B10: 19L04 (antibody, IgG4, V domains shown)
VH: B8 VH with A28T, K59T, H82Q, N88I, G97A, S104H
VL: DIMMTQSPSSLAMSVGQKVTLRCKSSQSLLNSSNQKNYLAWYQQKPGQSPKLLVYFASTRESGVPVRFIGSGSGTDFTLTISSMQAEDLADYFCQQHYFSPLTFGAGTKLELK
notes: as for B5

Assays:
[1] = target: T8, Cynomolgus PSGL-1(ECD)-hFc1 (cynomolgus macaque); test: ELISA, 20 nM mAb on plate cyno PSGL-1(ECD)-Fc
T8 construct: also called Cyno PSGL1-Fc; Cyno PSGL-1(ECD)-Fc
Summary of the method: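 Single-point (20 nM) or full-curve (0.003–200 nM) antibody binding measured against plate-immobilized recombinant cyno PSGL-1(ECD). Plates were coated overnight at 4 °C at 3 µg/mL in PBS pH 7.4, and antibody incubated 45 min at 37 °C. Detection was by TMB absorbance at 450 nm, with duplicate mean minus background.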

[2] = target: T1, Recombinant human PSGL-1(ECD)-hFc1 (R&D …); test: blocking ELISA vs P-selectin-Fc
Protocol: (§1) A typical selectin blocking ELISA assay involved coating high binding half-well plates (Corning, Cat. #3690) with 2.5 ug/mL/25 ul per well of recombinant PSGL-1-Fc protein (R&D Systems, Cat #3345-PS) in PBS, pH 7.4, overnight at 4° C. […] Antibody (test and controls) was serially diluted (25 ul/well) in duplicate in assay buffer (3% BSA in wash buffer) into appropriate wells and the plate incubated for 45 min at 37° C. […] The plate was washed ×3 and HRP-conjugated streptavidin was added in assay buffer [25 ul per well; (Jackson Immunoresearch, Cat. #016-030-084)] and the plate incubated for 45 min at 37° C. […] For each antibody, an IC50 value was determined from sigmoidal fitted titration curves.

[3] = target: T2, Biotin Y46,48,51(SO3) PSGL-1(42-62) …; test: ELISA, immobilized biotin peptide
Summary of the method: (§2)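 In this ELISA, half-well high binding plates (Corning Cat. #3690) received 3 ug/mL/25 ul per well of biotin-tagged PSGL-1 peptides covering residues 42 to 62, diluted in PBS, pH 7.4, and coated overnight at 4° C. Duplicate readings for each antibody were averaged and the average assay background was subtracted. PSGL-1 protein or peptide was the positive control.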

[4] = target: T1, Recombinant human PSGL-1(ECD)-hFc1 (R&D …); test: blocking ELISA vs L-selectin-Fc
Protocol: as §1

[5] = target: T1, Recombinant human PSGL-1(ECD)-hFc1 (R&D …); test: blocking ELISA vs VISTA-Fc, pH 6.0
[6] = target: T2, Biotin Y46,48,51(SO3) PSGL-1(42-62) …; test: ELISA, plate-bound target
[7] = target: T3, Biotin PSGL-1(42-62) peptide, unmodified; test: ELISA, plate-bound target
[8] = target: T4, Scrambled Y42,52,63(SO3) PSGL-1(42-62) …; test: ELISA, immobilized biotin peptide
Summary of the method: as §2

[9] = target: T3, Biotin PSGL-1(42-62) peptide, unmodified; test: ELISA, immobilized biotin peptide
Summary of the method: as §2

[10] = target: T5, Scrambled Y46,48,51(SO3) PSGL-1(42-62) …; test: ELISA, immobilized biotin peptide
Summary of the method: as §2

[11] = target: T6, Cynomolgus PSGL-1(ECD)-HIS; test: ELISA, plate cyno PSGL-1(ECD)-HIS
Protocol: Antibody binding to plate-immobilized cyno PSGL-1(ECD) was determined either at one concentration (20 nM) or by generating full antibody binding curves (0.003-200 nM). A typical ELISA was performed by overnight coating at 4° C. with 3 ug/mL/25 ul per well of recombinant cyno PSGL-1(ECD) protein in PBS, pH 7.4, in high binding half-well plates (Corning Cat. #3690). […] Anti-PSGL-1 IgG in assay buffer (blocking buffer containing 0.05% tween 20) was added into test and control wells (20 nM/25 ul/well) and the plate incubated for 45 min at 37° C. […] The plate was incubated for 45 min at 37° C., and mAb bound to plate-immobilized target determined at A450 nm using HRP substrate (3,3′,5,5′-tetramethylbenzidine (TMB)). For each antibody, duplicate values were averaged and assay background subtracted.

[12] = target: T7, Biotin sY51 PSGL-1(42-62) peptide; test: ELISA, immobilized biotin peptide
Summary of the method: as §2

T8 sequence (chain, as listed by the source limits assumed): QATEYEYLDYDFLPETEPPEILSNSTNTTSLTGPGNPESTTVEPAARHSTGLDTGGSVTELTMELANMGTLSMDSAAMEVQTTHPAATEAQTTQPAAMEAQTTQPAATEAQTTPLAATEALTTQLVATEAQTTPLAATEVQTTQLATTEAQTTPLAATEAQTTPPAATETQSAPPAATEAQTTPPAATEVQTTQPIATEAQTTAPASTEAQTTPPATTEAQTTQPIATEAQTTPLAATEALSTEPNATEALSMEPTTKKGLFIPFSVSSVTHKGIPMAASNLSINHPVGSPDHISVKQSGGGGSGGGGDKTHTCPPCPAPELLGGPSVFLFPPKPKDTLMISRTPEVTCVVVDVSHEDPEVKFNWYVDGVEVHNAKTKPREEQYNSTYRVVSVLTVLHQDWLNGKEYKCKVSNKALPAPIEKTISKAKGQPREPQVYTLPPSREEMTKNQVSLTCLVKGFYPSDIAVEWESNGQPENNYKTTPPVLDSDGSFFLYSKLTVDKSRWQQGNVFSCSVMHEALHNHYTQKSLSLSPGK

Row | Binder | A450nm [1] [A450 nm] | % max Block [2] [%] | IC50 [2] [nM] | A450nm, 20 nM mAb [3] [A450nm] | % max Block [4] [%] | IC50 [4] [nM] | % max Block [5] [%] | IC50 [5] [nM] | EC50 [11] [nM] | also measured
1 | B1 | 1.22 | 100 | 4 | 2.39 | 100 | 6 | 100 | 8 | – | –
2 | B2 | – | 100 | 10 | – | 100 | 10 | 100 | 8 | – | EC50 [6]: 0.05 nM; EC50 [7]: 0.04 nM
3 | B3 | 1.38 | – | – | 2.85 | – | – | – | – | – | A450nm, 20 nM mAb [8]: 0.01 A450nm; binding result [8]: no binding (tested: 20 nM); A450nm, 20 nM mAb [9]: 1.33 A450nm; EC50 [10]: 1.33 nM
4 | B4 | – | 100 | 8 | – | 100 | 6 | 100 | 9 | – | EC50 [6]: 0.04 nM; EC50 [7]: 0.03 nM
5 | B5 | – | 0 | – | – | 0 | – | 0 | – | 8.49 | –
6 | B6 | – | 52 | 100 | – | 65 | 20 | 85 | 30 | – | EC50 [12]: 178 nM; EC50 [3]: 0.485 nM; EC50 [9]: ~300 nM; binding result [10]: no binding
7 | B7 | 0.74 | 100 | 5 | 2.73 | 100 | 6 | 100 | 8 | – | binding result [8]: no binding (tested: 20 nM); EC50 [9]: > 500 nM
8 | B8 | – | 0 | – | – | 0 | – | 0 | – | 0.53 | –
9 | B9 | – | 0 | – | – | 0 | – | 0 | – | 0.95 | –
10 | B10 | – | 0 | – | – | 0 | – | 0 | – | 1.11 | –
